Laboratory results from article PMC7897226.

Legend:
[1] = target: CheY2-T25 (P. aeruginosa); assay: two-hybrid
[2] = target: T25-CheY2 (P. aeruginosa); assay: two-hybrid

With T18-CheA2 (enzyme) the fold β-galactosidase activity over controls [1] was 34 fold.

B1: CheD_(1–200)-T18 (natural protein)
chain: MNLQAREGAPLNRYYDPYFACDAVKLLPGEYFASGEDLVIVTVLGSCVSVCLRDPLNGIAGMNHFMLPERGLGGDPASPSARYGSHAMELLINRMLALGASRERLQAKVFGGGSVLRQISAAIGQRNVEFTLDYLATERIPLLASDVLEAFPRKIYFFPRNGRVLVKSLVELKNDTVLQRERDYRRRIDRNADGGPIDLF
B1 showed a fold β-galactosidase activity over control [2] of 15 fold.
